These results are taken from article PMC2920134 (The Journal of neuroscience : the official journal of the …, 2010).

Holding throughout (assay): pull-down
In experiment [1] the target is T1, His6-tagged NSF (AA 1-744) (mouse, UniProt P46460 1-744).
The next experiment concerns the target His6-tagged Arr1 (mouse, UniProt P20443 1-403).
For experiment [2], the target named is His6-tagged NSF truncated segment (AA 197-744) (mouse, UniProt P46460 197-744).
For experiment [3], the target named is T1, His6-tagged NSF (AA 1-744). This is another data set of the same source.

Read-outs that look alike come from different tables or passages of the source.

Sequence of His6-tagged NSF truncated segment (AA 197-744) (P46460 197-744): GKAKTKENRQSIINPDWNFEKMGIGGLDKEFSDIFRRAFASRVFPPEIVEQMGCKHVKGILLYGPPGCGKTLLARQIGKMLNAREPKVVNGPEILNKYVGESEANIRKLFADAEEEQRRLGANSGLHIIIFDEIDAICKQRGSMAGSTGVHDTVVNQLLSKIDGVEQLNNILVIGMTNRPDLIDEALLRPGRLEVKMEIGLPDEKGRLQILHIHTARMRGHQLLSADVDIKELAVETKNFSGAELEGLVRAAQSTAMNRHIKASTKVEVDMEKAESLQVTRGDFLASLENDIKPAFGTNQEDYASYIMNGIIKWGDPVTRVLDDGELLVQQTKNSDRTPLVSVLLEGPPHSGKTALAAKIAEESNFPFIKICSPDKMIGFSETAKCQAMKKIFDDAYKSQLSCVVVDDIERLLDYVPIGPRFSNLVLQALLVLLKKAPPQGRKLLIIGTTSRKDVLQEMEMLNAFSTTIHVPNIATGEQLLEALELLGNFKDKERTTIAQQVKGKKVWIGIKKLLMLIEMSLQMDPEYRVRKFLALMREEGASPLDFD

B1: GST-tagged truncated Arr1 [AA 1-191] (domain or fragment, mouse, UniProt P20443 1-191, looked up)
chain: MAACGKTNKSHVIFKKVSRDKSVTIYLGKRDYVDHVSQVEPVDGVVLVDPELVKGKKVYVTLTCAFRYGQEDIDVMGLTFRRDLYFSRVQVYPPVGAMSVLTQLQESLLKKLGDNTYPFLLTFPDYLPCSVMLQPAPQDVGKSCGVDFEVKAFASDITDPEEDKIPKKSSVRLLIRKVQHAPPEMGPQPSA
Consider B1, for which the binding result in experiment [1] is listed as “binds”.

B2: GST-tagged truncated Arr1 [AA 1-370] (domain or fragment, mouse, UniProt P20443 1-370, looked up)
chain: MAACGKTNKSHVIFKKVSRDKSVTIYLGKRDYVDHVSQVEPVDGVVLVDPELVKGKKVYVTLTCAFRYGQEDIDVMGLTFRRDLYFSRVQVYPPVGAMSVLTQLQESLLKKLGDNTYPFLLTFPDYLPCSVMLQPAPQDVGKSCGVDFEVKAFASDITDPEEDKIPKKSSVRLLIRKVQHAPPEMGPQPSAEASWQFFMSDKPLNLSVSLSKEIYFHGEPIPVTVTVTNNTDKVVKKIKVSVEQIANVVLYSSDYYVKPVASEETQEKVQPNSTLTKTLVLVPLLANNRERRGIALDGKIKHEDTNLASSTIIKEGIDRTVMGILVSYHIKVKLTVSGFLGELTSSEVATEVPFRLMHPQPEDPAKESVQ
Consider B2, for which the binding result in experiment [1] is “binds”.

B3: GST-tagged NSF (AA 1-250) (domain or fragment, mouse, UniProt P46460 1-250, looked up)
chain: MAGRTMQAARCPTDELSLSNCAVVNEKDFQSGQHVMVRTSPNHKYIFTLRTHPSVVPGCIAFSLPQRKWAGLSIGQDIEVALYSFDKAKQCIGTMTIEIDFLQKKNIDSNPYDTDKMAAEFIQQFNNQAFSVGQQLVFSFNDKLFGLLVKDIEAMDPSILKGEPASGKRQKIEVGLVVGNSQVAFEKAENSSLNLIGKAKTKENRQSIINPDWNFEKMGIGGLDKEFSDIFRRAFASRVFPPEIVEQMGC
As to B3, in the experiment with His6-tagged Arr1, the binding result is recorded as “binds”.

B4: GST-tagged Arr1 [AA 1-403] (natural protein, mouse, UniProt P20443 1-403, looked up)
chain: MAACGKTNKSHVIFKKVSRDKSVTIYLGKRDYVDHVSQVEPVDGVVLVDPELVKGKKVYVTLTCAFRYGQEDIDVMGLTFRRDLYFSRVQVYPPVGAMSVLTQLQESLLKKLGDNTYPFLLTFPDYLPCSVMLQPAPQDVGKSCGVDFEVKAFASDITDPEEDKIPKKSSVRLLIRKVQHAPPEMGPQPSAEASWQFFMSDKPLNLSVSLSKEIYFHGEPIPVTVTVTNNTDKVVKKIKVSVEQIANVVLYSSDYYVKPVASEETQEKVQPNSTLTKTLVLVPLLANNRERRGIALDGKIKHEDTNLASSTIIKEGIDRTVMGILVSYHIKVKLTVSGFLGELTSSEVATEVPFRLMHPQPEDPAKESVQDENLVFEEFARQNLKDTGENTEGKKDEDAGQDE
B4: the binding result in experiment [2] and in experiment [3] was “binds” each time.
